Key:
[1] = target: SMARCA4 (mouse (endogenous in mouse brain)) (UniProt Q3TKT4); experiment: co-IP; three successive immunodepletions of adult Brwd1^FLAG-HA brain nuclear extract with antibodies to SMARCA4 or SS18L1 or IgG; signal left in the final flow-through by blot densitometry, normalised to IgG
[2] = target: SS18L1 (mouse (endogenous in mouse brain)) (UniProt Q8BW22); experiment: as above
[3] = target: SS18 (mouse (endogenous in mouse brain)) (UniProt Q62280); experiment: co-IP; three successive immunodepletions of E17.5 Brwd1^FLAG-HA brain nuclear extract with antibodies to SMARCA4, SS18 or SS18L1 or IgG; signal left in the final flow-through by blot densitometry, normalised to IgG
Sequence of SS18 (mouse (endogenous in mouse brain)) (Q62280 whole entry): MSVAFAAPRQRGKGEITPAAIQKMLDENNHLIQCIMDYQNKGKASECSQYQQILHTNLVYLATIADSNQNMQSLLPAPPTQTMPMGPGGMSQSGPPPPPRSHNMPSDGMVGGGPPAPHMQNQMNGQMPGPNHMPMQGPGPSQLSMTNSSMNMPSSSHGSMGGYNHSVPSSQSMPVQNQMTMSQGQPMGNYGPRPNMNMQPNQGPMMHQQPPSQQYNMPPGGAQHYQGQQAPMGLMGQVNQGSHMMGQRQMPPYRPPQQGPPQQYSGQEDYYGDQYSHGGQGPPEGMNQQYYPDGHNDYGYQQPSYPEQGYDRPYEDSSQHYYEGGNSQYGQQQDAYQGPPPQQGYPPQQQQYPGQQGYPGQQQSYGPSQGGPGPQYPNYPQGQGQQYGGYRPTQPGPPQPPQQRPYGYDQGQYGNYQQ

[4] = target: SMARCA4 (mouse (endogenous in mouse brain)) (UniProt Q3TKT4); experiment: co-IP; brain nuclear extract partially denatured with 0, 0.25, 0.5, 1, 2 or 4 M urea (15 min, room temperature), dialysed, then IP with anti-SMARCA4 (BRG1 H-10) or mouse IgG; bound protein normalised to immunoprecipitated SMARCA4 (n = 3)

Sequence of BRWD1-FLAG-HA, Q921C3 1-2304 (natural protein) (Q921C3 whole entry): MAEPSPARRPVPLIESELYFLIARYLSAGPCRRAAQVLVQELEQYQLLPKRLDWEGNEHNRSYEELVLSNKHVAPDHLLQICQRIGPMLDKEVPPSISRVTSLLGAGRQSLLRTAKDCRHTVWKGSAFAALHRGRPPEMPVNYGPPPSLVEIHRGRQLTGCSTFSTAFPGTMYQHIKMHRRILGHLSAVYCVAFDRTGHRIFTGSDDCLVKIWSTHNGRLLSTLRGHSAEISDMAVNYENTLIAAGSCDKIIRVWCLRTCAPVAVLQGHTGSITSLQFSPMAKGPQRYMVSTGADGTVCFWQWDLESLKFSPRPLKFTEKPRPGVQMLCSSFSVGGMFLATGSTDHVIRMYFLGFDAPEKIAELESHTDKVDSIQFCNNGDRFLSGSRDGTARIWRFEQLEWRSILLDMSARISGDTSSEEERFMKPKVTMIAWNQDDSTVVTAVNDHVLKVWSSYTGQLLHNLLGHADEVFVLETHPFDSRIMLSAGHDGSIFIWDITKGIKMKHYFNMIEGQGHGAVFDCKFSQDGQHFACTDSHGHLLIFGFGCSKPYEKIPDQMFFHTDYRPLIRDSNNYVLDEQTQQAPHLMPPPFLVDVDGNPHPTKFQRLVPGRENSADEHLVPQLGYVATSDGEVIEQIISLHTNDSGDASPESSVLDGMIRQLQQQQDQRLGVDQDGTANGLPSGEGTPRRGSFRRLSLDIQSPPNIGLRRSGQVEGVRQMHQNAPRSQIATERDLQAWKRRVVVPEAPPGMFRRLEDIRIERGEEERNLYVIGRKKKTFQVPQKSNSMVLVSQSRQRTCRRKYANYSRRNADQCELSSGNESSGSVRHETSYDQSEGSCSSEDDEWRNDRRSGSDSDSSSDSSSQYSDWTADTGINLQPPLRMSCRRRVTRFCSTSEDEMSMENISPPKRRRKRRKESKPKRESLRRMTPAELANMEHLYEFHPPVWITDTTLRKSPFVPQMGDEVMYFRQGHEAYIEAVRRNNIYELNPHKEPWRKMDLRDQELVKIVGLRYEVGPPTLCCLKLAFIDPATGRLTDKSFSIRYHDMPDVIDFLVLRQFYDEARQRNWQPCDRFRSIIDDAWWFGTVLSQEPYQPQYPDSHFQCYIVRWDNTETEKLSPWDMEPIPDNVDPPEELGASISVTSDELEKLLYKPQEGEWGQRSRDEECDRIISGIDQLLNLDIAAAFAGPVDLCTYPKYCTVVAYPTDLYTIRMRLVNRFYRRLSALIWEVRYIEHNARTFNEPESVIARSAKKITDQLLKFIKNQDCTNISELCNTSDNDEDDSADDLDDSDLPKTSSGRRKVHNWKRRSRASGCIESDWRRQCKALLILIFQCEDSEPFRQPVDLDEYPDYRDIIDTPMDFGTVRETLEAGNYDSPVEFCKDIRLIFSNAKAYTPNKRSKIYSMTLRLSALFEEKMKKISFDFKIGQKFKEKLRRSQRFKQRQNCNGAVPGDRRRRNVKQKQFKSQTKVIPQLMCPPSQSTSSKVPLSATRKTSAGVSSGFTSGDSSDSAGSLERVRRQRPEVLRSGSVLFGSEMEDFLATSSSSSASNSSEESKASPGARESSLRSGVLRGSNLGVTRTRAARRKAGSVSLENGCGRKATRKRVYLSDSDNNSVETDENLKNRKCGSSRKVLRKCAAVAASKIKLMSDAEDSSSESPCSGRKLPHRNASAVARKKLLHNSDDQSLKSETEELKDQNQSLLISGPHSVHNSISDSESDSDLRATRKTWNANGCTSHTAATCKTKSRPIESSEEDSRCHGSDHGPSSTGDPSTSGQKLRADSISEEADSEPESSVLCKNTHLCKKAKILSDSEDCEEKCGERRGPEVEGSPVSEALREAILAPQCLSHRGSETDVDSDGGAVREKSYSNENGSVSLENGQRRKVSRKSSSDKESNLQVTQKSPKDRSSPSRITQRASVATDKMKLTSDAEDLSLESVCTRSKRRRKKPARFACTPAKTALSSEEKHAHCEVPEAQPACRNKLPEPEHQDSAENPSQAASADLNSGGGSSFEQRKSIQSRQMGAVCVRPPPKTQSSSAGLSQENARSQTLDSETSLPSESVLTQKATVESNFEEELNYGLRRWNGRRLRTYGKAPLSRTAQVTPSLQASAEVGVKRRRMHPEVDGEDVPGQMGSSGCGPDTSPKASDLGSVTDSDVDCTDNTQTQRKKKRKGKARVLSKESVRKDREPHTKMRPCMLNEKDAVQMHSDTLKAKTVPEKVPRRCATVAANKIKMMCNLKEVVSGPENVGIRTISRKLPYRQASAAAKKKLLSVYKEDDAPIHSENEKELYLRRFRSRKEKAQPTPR
Sequence of SMARCA4 (mouse (endogenous in mouse brain)) (Q3TKT4 whole entry): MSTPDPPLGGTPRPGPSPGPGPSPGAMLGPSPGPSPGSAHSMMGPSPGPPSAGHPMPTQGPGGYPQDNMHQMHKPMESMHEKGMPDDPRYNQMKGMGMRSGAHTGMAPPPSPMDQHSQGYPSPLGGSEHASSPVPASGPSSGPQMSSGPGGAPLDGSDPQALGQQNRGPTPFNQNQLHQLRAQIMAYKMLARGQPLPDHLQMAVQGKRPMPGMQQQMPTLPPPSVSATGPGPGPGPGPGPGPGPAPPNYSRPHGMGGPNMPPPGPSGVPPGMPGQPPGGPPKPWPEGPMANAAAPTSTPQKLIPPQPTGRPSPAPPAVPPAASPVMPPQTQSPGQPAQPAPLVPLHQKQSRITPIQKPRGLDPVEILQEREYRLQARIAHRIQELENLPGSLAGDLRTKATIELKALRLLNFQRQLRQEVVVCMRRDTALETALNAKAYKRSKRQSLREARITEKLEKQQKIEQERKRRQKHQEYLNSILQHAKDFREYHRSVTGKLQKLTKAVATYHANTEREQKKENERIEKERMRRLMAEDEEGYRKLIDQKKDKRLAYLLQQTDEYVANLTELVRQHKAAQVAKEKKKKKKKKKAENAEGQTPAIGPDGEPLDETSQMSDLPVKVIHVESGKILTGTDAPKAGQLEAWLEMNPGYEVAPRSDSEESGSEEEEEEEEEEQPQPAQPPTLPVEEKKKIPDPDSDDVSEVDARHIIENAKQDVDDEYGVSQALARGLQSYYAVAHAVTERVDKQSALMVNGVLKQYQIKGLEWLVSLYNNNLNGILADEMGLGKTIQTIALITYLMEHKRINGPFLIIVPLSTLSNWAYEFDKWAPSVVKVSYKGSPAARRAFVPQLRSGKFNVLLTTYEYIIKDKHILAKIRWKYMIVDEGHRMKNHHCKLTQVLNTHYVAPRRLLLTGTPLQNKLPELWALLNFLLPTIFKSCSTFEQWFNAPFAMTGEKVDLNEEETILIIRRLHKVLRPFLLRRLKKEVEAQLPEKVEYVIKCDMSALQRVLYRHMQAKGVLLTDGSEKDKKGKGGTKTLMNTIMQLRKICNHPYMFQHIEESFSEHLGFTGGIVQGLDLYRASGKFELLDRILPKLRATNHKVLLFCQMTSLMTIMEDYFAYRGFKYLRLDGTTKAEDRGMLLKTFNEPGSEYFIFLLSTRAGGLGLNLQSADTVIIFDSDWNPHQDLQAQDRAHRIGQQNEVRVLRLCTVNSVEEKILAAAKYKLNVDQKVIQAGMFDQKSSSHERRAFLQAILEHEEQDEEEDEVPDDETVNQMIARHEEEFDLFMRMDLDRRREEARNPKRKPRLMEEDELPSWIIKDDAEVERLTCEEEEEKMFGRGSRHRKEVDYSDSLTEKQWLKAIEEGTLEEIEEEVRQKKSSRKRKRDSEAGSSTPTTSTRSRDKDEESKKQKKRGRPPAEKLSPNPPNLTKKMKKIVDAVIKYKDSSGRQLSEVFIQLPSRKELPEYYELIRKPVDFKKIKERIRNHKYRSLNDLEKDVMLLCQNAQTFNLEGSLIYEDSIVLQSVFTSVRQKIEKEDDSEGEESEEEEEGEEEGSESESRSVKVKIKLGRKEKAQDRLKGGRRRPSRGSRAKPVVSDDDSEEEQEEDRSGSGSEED
Sequence of SS18L1 (mouse (endogenous in mouse brain)) (Q8BW22 whole entry): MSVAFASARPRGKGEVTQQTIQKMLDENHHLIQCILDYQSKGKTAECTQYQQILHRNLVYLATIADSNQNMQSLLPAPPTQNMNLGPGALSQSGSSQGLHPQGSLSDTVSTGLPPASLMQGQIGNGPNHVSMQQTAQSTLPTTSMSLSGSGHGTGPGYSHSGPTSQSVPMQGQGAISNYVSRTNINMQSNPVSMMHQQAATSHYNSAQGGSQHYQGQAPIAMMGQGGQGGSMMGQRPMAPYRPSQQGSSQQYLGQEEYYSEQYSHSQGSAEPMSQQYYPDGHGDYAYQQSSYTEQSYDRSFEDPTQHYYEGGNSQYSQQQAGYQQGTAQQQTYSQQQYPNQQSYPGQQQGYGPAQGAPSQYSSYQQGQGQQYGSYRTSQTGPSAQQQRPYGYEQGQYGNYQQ

BRWD1-FLAG-HA, Q921C3 1-2304 (natural protein)
percent co-depleted [1]: 20%
percent co-depleted [2]: 20%
percent co-depleted [3]: 20%
percent destabilized in 0.5 M urea [4]: 60%
percent remaining bound through 4 M urea [4]: 40%

Source: article PMC9606253
